Where a chain is given by its changes, count along the chain named.

B1: γ23κ5 (antibody, V domains shown)
VH: QIHLVQSGTEVKKPGSSVTVSCKAYGVNTFGLYAVNWVRQAPGQSLEYIGQIWRWKSSASHHFRGRVIISAVDLTGSSPPISSLEIKNLTSDDTAVYFCTTTSTSDYWSGLHHDGVMAFSSWGQGTLISVSA
VL: DIQMTQSPSTLSASTGDTVRISCRASQSITGNWVAWYQQRPGKAPRLLIYRGAALLGGVPSRFRGSAAGTDFTLTIGNLQAEDFGTFYCQQYDTYPGTFGQGTKVEVKR
B2: γ3κ11 (antibody, V domains shown)
VH: QIHLVQSGTEVKKPGSSVTVSCKAYGVNTFGLYAVSWVRQAPGQRLEYIGQIRRWKSSASHHFRGRVTVSAVDPTGSSPPISSLEIRDLTTDDTAVYFCTTTSTSDYWSGLHNERGTAFSSWGQGTLISVSA
VL: B1 VL with T15V, D17G, N32G, V34L, Q38H, A53S, A54R, R64S, G77A
B3: γ15κ11 (antibody, V domains shown)
VH: B1 VH with T102A, S105Y, Y107K
VL: B1 VL with T15V, D17G, N32G, V34L, Q38H, A53S, A54R, R64S, G77A
B4: γ59κ5 (antibody, V domains shown)
VH: B1 VH with S45G, I68L, L89V, S105Y, Y107E, G110D
VL: B1 VL

For one assay, the target named is Env of HIV-1 strain ZM53M.PB12 (HIV-1). Briefly: cell-based or functional assay.
In turn, B1 registered a neutralization IC50 of 5.88 µg/mL.

In the case of B2, the neutralization IC50 was above 15 µg/mL.

As to B3, the neutralization IC50 is above 15 µg/mL.

Molecule B4 came in with a neutralization IC50 of 24.1 µg/mL.

The target in another assay is Env of HIV-1 strain Du172.17 (HIV-1). Briefly: cell-based or functional assay.
The molecule B1 had a neutralization IC50 of 1.81 µg/mL.

Regarding B2, the neutralization IC50 was above 15 µg/mL.

Turning to B3, the neutralization IC50 is above 15 µg/mL.

B4 showed a neutralization IC50 above 15 µg/mL.

The target of the next assay is Env of HIV-1 strain ZM109F.PB4 (HIV-1). Briefly: cell-based or functional assay.
Molecule B1 registered a neutralization IC50 above 15 µg/mL.

With B2, the neutralization IC50 was above 15 µg/mL.

As to B3, the neutralization IC50 is above 15 µg/mL.

For B4, the neutralization IC50 is above 15 µg/mL.

The target in a further assay is Env of HIV-1 strain 231965.c1 (HIV-1). Nature of the assay: cell-based or functional assay.
For B1, the neutralization IC50 stood at 0.291 µg/mL.

In turn, B2 gave a neutralization IC50 of 0.455 µg/mL.

With B3, the neutralization IC50 stood at 5.1 µg/mL.

In the case of B4, the neutralization IC50 was above 15 µg/mL.

Another assay concerns the target Env of MuLV. Briefly: cell-based or functional assay.
The molecule B1 had a neutralization IC50 above 30 µg/mL.

In the case of B2, the neutralization IC50 was above 30 µg/mL.

B3 came in with a neutralization IC50 above 30 µg/mL.

B4 came in with a neutralization IC50 above 30 µg/mL.

Another assay deals with Env of HIV-1 strain 3415.v1.c1 (HIV-1). Nature of the assay: cell-based or functional assay.
Turning to B1, the neutralization IC50 turned out to be 1.48 µg/mL.

For the molecule B2, the neutralization IC50 was above 15 µg/mL.

On to B3, for which the neutralization IC50 is above 15 µg/mL.

In turn, B4 returned a neutralization IC50 above 15 µg/mL.

The target of a further assay is Env of HIV-1 strain PVO.4 (HIV-1). Nature of the assay: cell-based or functional assay.
Take B1: the neutralization IC50 amounted to 0.043 µg/mL.

For the molecule B2, the neutralization IC50 was 0.074 µg/mL.

B3: the neutralization IC50 is 6.7 µg/mL.

With B4, the neutralization IC50 was above 15 µg/mL.

The target of another assay is Env of HIV-1 strain 3016.v5.c45 (HIV-1). Nature of the assay: cell-based or functional assay.
On to B1, for which the neutralization IC50 was 0.091 µg/mL.

As for B2, the neutralization IC50 is 0.145 µg/mL.

B3 yielded a neutralization IC50 of 1.32 µg/mL.

On to B4, for which the neutralization IC50 is above 15 µg/mL.

A further assay addresses Env of HIV-1 strain REJO4541.67 (HIV-1). Nature of the assay: cell-based or functional assay.
B1 yielded a neutralization IC50 of 0.091 µg/mL.

In the case of B2, the neutralization IC50 turned out to be 0.091 µg/mL.

As for B3, the neutralization IC50 is above 15 µg/mL.

In turn, B4 came in with a neutralization IC50 of 4.67 µg/mL.

The target in a further assay is Env of HIV-1 strain R1166.c1 (HIV-1). Briefly: cell-based or functional assay.
In the case of B1, the neutralization IC50 was 1.07 µg/mL.

B2 displayed a neutralization IC50 of 1.79 µg/mL.

In turn, B3 yielded a neutralization IC50 of 9.81 µg/mL.

Consider B4, for which the neutralization IC50 stood at 28.2 µg/mL.

The target in the next assay is Env of HIV-1 strain 3365.v2.c20 (HIV-1). Nature of the assay: cell-based or functional assay.
In the case of B1, the neutralization IC50 is above 15 µg/mL.

For the molecule B2, the neutralization IC50 was above 15 µg/mL.

In turn, B3 showed a neutralization IC50 above 15 µg/mL.

Take B4: the neutralization IC50 is above 15 µg/mL.

The target of another assay is Env of HIV-1 strain YU2.DG (HIV-1). Nature of the assay: cell-based or functional assay.
B1 gave a neutralization IC50 of 0.136 µg/mL.

Consider B2, for which the neutralization IC50 was found to be 0.276 µg/mL.

B3 yielded a neutralization IC50 of 4.12 µg/mL.

B4 returned a neutralization IC50 of 7.28 µg/mL.

Another assay concerns the target Env of HIV-1 strain 250-4 (HIV-1). Briefly: cell-based or functional assay.
With B1, the neutralization IC50 is above 15 µg/mL.

The molecule B2 came in with a neutralization IC50 above 15 µg/mL.

Turning to B3, the neutralization IC50 is above 15 µg/mL.

Turning to B4, the neutralization IC50 was above 15 µg/mL.

A further assay deals with Env of HIV-1 strain H086.8 (HIV-1). Briefly: cell-based or functional assay.
On to B1, for which the neutralization IC50 amounted to 0.474 µg/mL.

Molecule B2 showed a neutralization IC50 of 0.778 µg/mL.

On to B3, for which the neutralization IC50 was above 15 µg/mL.

Take B4: the neutralization IC50 is above 15 µg/mL.

The target in another assay is Env of HIV-1 strain X1254_c3 (HIV-1). Nature of the assay: cell-based or functional assay.
Take B1: the neutralization IC50 was 0.919 µg/mL.

On to B2, for which the neutralization IC50 amounted to 2.31 µg/mL.

The molecule B3 showed a neutralization IC50 of 13.7 µg/mL.

Consider B4, for which the neutralization IC50 was 9.42 µg/mL.

A further assay has as its target Env of HIV-1 strain 251-18 (HIV-1). Briefly: cell-based or functional assay.
B1 registered a neutralization IC50 of 0.176 µg/mL.

The molecule B2 showed a neutralization IC50 above 15 µg/mL.

B3 came in with a neutralization IC50 above 15 µg/mL.

Turning to B4, the neutralization IC50 came out at 6.96 µg/mL.

(Values after US20180171001A1.)
